In test [1] the target is HER2 on SUM185 and SUM190 human breast cancer tumor cells (human) (UniProt P04626). The test can be described thus: flow cytometry on SUM185 cells, antibody at 10 µg/ml. For orientation: A flow cytometer gives signals particle by particle.
The target is the same in test [2]. The test can be described thus: flow cytometry on SUM190 cells, antibody at 10 µg/ml.

As to “Anti-Her2 antibody trastuzumab modified as human IgG1 isotype containing a N297Q mutation”, the MFI (median fluorescence units) in test [1] was 2880; in test [2] it was 1780.

For the origin of these results see patent US20240325557A1, “TREATMENT OF CANCER” (INNATE PHARMA, priority 2020, published 2024).
